Measurements: publication PMC2832577 (Science (New York, N.Y.), 2008)

Experiments:
[1] = molecular target: T1, LeuT (Aquifex aeolicus, UniProt O67854); experiment: X-ray crystal structure, anomalous difference Fourier; assay type: binding; details: primary substrate site
[2] = molecular target: T1, LeuT; experiment: displacement of [3H]leucine binding
[3] = molecular target: T1, LeuT; experiment: direct radioligand binding
[4] = test system: CC(C)C[C@H](N)C(=O)O; experiment: purified protein; details: transport
[5] = test system: CSCC[C@H](N)C(=O)O; experiment: purified protein; details: transport
[6] = test system: NCC(=O)O; experiment: purified protein; details: transport
[7] = test system: N[C@@H](Cc1ccc(O)cc1)C(=O)O; experiment: purified protein; details: transport

In the case of `C[Se]CC[C@H](N)C(=O)O` [selenomethionine], the “X-ray crystal structure, anomalous difference Fourier” value [1] is reported as “We also measured diffraction data on a LeuT-selenomethionine complex”.

For `NCC(=O)O` [Glycine], the Ki [2] was 322 µM.

Compound `CSCC[C@H](N)C(=O)O` [Methionine] has a Ki [2] of 0.232 ± 0.021 µM and a Kd [3] of 0.069 ± 0.008 µM.

LeuT (Aquifex aeolicus VF5) was tested, and the Km [4] was 0.146 ± 0.025 µM, the Vmax [4] was 0.000343 µmol/min/mg and the kcat [4] was 0.000333 ± 5.56e-05 s⁻¹. It also gave a kcat/Km [4] of 2280 M⁻¹ s⁻¹, a Km [5] of 0.289 ± 0.027 µM and a Vmax [5] of 0.000523 µmol/min/mg. For the same compound, the kcat [5] was 0.000517 ± 1.11e-05 s⁻¹, the kcat/Km [5] was 1780 M⁻¹ s⁻¹ and the Km [6] was 1.91 ± 0.03 µM. For the same compound, the Vmax [6] was 0.000444 µmol/min/mg, the kcat [6] was 0.000439 ± 5.56e-05 s⁻¹ and the kcat/Km [6] was 222 M⁻¹ s⁻¹. For the same compound, the Km [7] was 2.83 ± 0.15 µM, the Vmax [7] was 0.000209 µmol/min/mg and the kcat [7] was 0.000206 ± 1.39e-05 s⁻¹. For the same compound, the kcat/Km [7] was 83.3 M⁻¹ s⁻¹.

`N[C@@H](Cc1ccc(O)cc1)C(=O)O` [Tyrosine] was tested, and the Ki [2] was 9.04 ± 0.55 µM.
